The values below come from article PMC2908990 (Molecular cell, 2009).

One may read the Kd as a measure of binding affinity in units of concentration. A low value points to a tighter complex. As usually defined, the koff is the first-order rate constant of dissociation. A low value points to slow dissociation. As a reminder, the kon is the second-order rate constant of association. The low end stands for slower complex formation, the high end for faster complex formation.

This assay deals with BiP, murine sequence (hamster BiP mutated to the murine sequence) (murine, UniProt P20029 20-655). The assay is described as follows: SEC. Background: Size exclusion chromatography separates by hydrodynamic size, large species first.
BiP, murine sequence (hamster BiP mutated to the murine sequence), sequence (P20029 20-655, change not shown): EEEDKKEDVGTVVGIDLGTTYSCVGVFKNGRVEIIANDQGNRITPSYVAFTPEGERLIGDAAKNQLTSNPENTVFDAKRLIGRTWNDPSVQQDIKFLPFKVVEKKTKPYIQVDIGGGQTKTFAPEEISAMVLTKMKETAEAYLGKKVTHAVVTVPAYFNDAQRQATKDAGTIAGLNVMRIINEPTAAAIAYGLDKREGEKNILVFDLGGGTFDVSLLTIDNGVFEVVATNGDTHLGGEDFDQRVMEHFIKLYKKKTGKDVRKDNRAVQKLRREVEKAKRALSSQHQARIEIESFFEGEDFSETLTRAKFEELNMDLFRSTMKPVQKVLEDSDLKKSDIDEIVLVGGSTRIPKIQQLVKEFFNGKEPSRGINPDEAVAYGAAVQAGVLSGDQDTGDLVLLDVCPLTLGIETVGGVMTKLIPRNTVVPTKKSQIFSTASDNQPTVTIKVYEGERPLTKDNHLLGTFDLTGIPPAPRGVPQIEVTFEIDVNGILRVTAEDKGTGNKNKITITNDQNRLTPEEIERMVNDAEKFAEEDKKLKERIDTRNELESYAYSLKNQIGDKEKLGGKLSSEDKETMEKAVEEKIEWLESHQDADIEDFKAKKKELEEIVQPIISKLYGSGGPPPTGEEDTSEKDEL

B1: CH1 domain of the murine IgG1 heavy chain, reduced (domain or fragment)
chain: not shown
modifications: internal disulfide bridge not formed (reduced)
B1 yielded a dissociation constant Kd of 4.2 ± 0.4 µM, a koff of 7.83e-05 s⁻¹ and a kon of 6.83 M⁻¹ s⁻¹.

B2: CH1 domain of the murine IgG1 heavy chain, oxidized (internal disulfide bridge formed) (domain or fragment)
chain: not shown
modifications: internal disulfide bridge formed (oxidized; Cys25-Cys80)
Molecule B2 yielded a Kd of 12.6 ± 0.7 µM, a koff of 8.33e-05 s⁻¹ and an association rate constant (kon) of 4.33 M⁻¹ s⁻¹.
